Test results from US20060257938A1, “Method of screening for drugs that block ligand binding to a lipid binding protein” (priority 2005, published 2006).

Legend:
Assay type in all cases: binding
[1] = Probe fluorescence ratio response to linoleic acid relative to ADIFAB2; details: response relative to ADIFAB2
In short: (§1)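 Fluorescently labeled rat intestinal FABP variants were read at two emission wavelengths, near the unbound maximum (about 420 to 480 nm) and the FFA-bound maximum (about 495 to 580 nm). R = Fλ1/Fλ2 after subtracting probe-free intensity; ΔR = R+agent − R0, normalized to ADIFAB2 (rI-FABP-L72A).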

[2] = Probe fluorescence ratio response to oleic acid relative to ADIFAB2; details: response relative to ADIFAB2
In short: as §1

[3] = Probe fluorescence ratio response to linolenic acid relative to ADIFAB2; details: response relative to ADIFAB2
In short: as §1

[4] = Probe fluorescence ratio response to palmitic acid relative to ADIFAB2; details: response relative to ADIFAB2
In short: as §1

[5] = Probe fluorescence ratio response to arachidonic acid relative to ADIFAB2; details: arachidonic acid; response relative to ADIFAB2
In short: as §1

Molecule	DR/DR LA [1]	DR/DR OA [2]	DR/DR LNA [3]	DR/DR PA [4]	DR/DR AA [5]
104N, 72A (protein, listed as Rattus norvegicus, PEPTIDE (1)...(131) wild-type rat intestinal fatty acid binding protein) AFDGTWKVDRNENYEKFMEKMGINVVKRKLGAHDNLKLTITQEGNKFTVKESSNFRNIDVVFELGVDFAYSAADGTELTGTWTMEGNKLVGKFKRVDNGKELINVREISGNELIQTYTYEGVEAKRIFKKE	0.385	0.408	0.391	0.406	1.018
23V, 72A (protein, listed as Rattus norvegicus, PEPTIDE (1)...(131) wild-type rat intestinal fatty acid binding protein) AFDGTWKVDRNENYEKFMEKMGVNVVKRKLGAHDNLKLTITQEGNKFTVKESSNFRNIDVVFELGVDFAYSAADGTELTGTWTMEGNKLVGKFKRVDNGKELIAVREISGNELIQTYTYEGVEAKRIFKKE	1.731	1.561	1.351	1.475	1.464
38W, 72A (protein, listed as Rattus norvegicus, PEPTIDE (1)...(131) wild-type rat intestinal fatty acid binding protein) AFDGTWKVDRNENYEKFMEKMGINVVKRKLGAHDNLKWTITQEGNKFTVKESSNFRNIDVVFELGVDFAYSAADGTELTGTWTMEGNKLVGKFKRVDNGKELIAVREISGNELIQTYTYEGVEAKRIFKKE	2.413	1.583	1.336	1.552	1.350
31T, 72A (protein, listed as Rattus norvegicus, PEPTIDE (1)...(131) wild-type rat intestinal fatty acid binding protein) AFDGTWKVDRNENYEKFMEKMGINVVKRKLTAHDNLKLTITQEGNKFTVKESSNFRNIDVVFELGVDFAYSAADGTELTGTWTMEGNKLVGKFKRVDNGKELIAVREISGNELIQTYTYEGVEAKRIFKKE	0.215	−0.024	0.510	0.145	0.143
21D, 72A (protein, listed as Rattus norvegicus, PEPTIDE (1)...(131) wild-type rat intestinal fatty acid binding protein) AFDGTWKVDRNENYEKFMEKDGINVVKRKLGAHDNLKLTITQEGNKFTVKESSNFRNIDVVFELGVDFAYSAADGTELTGTWTMEGNKLVGKFKRVDNGKELIAVREISGNELIQTYTYEGVEAKRIFKKE	1.562	1.345	1.478	0.707	1.301
31R, 72A (protein, listed as Rattus norvegicus, PEPTIDE (1)...(131) wild-type rat intestinal fatty acid binding protein) AFDGTWKVDRNENYEKFMEKMGINVVKRKLRAHDNLKLTITQEGNKFTVKESSNFRNIDVVFELGVDFAYSAADGTELTGTWTMEGNKLVGKFKRVDNGKELIAVREISGNELIQTYTYEGVEAKRIFKKE	0.405	0.227	0.437	0.342	0.250
49I, 72A (protein, listed as Rattus norvegicus, PEPTIDE (1)...(131) wild-type rat intestinal fatty acid binding protein) AFDGTWKVDRNENYEKFMEKMGINVVKRKLGAHDNLKLTITQEGNKFTIKESSNFRNIDVVFELGVDFAYSAADGTELTGTWTMEGNKLVGKFKRVDNGKELIAVREISGNELIQTYTYEGVEAKRIFKKE	1.839	1.804	1.820	1.162	1.796
62Y, 72A (protein, listed as Rattus norvegicus, PEPTIDE (1)...(131) wild-type rat intestinal fatty acid binding protein) AFDGTWKVDRNENYEKFMEKMGINVVKRKLGAHDNLKLTITQEGNKFTVKESSNFRNIDVVYELGVDFAYSAADGTELTGTWTMEGNKLVGKFKRVDNGKELIAVREISGNELIQTYTYEGVEAKRIFKKE	1.545	1.439	1.395	1.037	1.598
31F, 72A (protein, listed as Rattus norvegicus, PEPTIDE (1)...(131) wild-type rat intestinal fatty acid binding protein) AFDGTWKVDRNENYEKFMEKMGINVVKRKLFAHDNLKLTITQEGNKFTVKESSNFRNIDVVFELGVDFAYSAADGTELTGTWTMEGNKLVGKFKRVDNGKELIAVREISGNELIQTYTYEGVEAKRIFKKE	1.759	1.331	1.647	1.438	1.210
104S, 72A (protein, listed as Rattus norvegicus, PEPTIDE (1)...(131) wild-type rat intestinal fatty acid binding protein) AFDGTWKVDRNENYEKFMEKMGINVVKRKLGAHDNLKLTITQEGNKFTVKESSNFRNIDVVFELGVDFAYSAADGTELTGTWTMEGNKLVGKFKRVDNGKELISVREISGNELIQTYTYEGVEAKRIFKKE	1.715	1.663	1.538	1.570	1.638
62W, 72A (protein, listed as Rattus norvegicus, PEPTIDE (1)...(131) wild-type rat intestinal fatty acid binding protein) AFDGTWKVDRNENYEKFMEKMGINVVKRKLGAHDNLKLTITQEGNKFTVKESSNFRNIDVVWELGVDFAYSAADGTELTGTWTMEGNKLVGKFKRVDNGKELIAVREISGNELIQTYTYEGVEAKRIFKKE	2.339	2.155	2.120	1.450	2.206
18L, 72A (protein, listed as Rattus norvegicus, PEPTIDE (1)...(131) wild-type rat intestinal fatty acid binding protein) AFDGTWKVDRNENYEKFLEKMGINVVKRKLGAHDNLKLTITQEGNKFTVKESSNFRNIDVVFELGVDFAYSAADGTELTGTWTMEGNKLVGKFKRVDNGKELIAVREISGNELIQTYTYEGVEAKRIFKKE	1.596	1.551	1.544	1.090	1.490
70Q, 72A (protein, listed as Rattus norvegicus, PEPTIDE (1)...(131) wild-type rat intestinal fatty acid binding protein) AFDGTWKVDRNENYEKFMEKMGINVVKRKLGAHDNLKLTITQEGNKFTVKESSNFRNIDVVFELGVDFAQSAADGTELTGTWTMEGNKLVGKFKRVDNGKELIAVREISGNELIQTYTYEGVEAKRIFKKE	1.819	1.604	1.622	0.868	1.546
11Q, 72A (protein, listed as Rattus norvegicus, PEPTIDE (1)...(131) wild-type rat intestinal fatty acid binding protein) AFDGTWKVDRQENYEKFMEKMGINVVKRKLGAHDNLKLTITQEGNKFTVKESSNFRNIDVVFELGVDFAYSAADGTELTGTWTMEGNKLVGKFKRVDNGKELIAVREISGNELIQTYTYEGVEAKRIFKKE	1.715	1.716	1.582	1.450	1.525
31E, 72A (protein, listed as Rattus norvegicus, PEPTIDE (1)...(131) wild-type rat intestinal fatty acid binding protein) AFDGTWKVDRNENYEKFMEKMGINVVKRKLEAHDNLKLTITQEGNKFTVKESSNFRNIDVVFELGVDFAYSAADGTELTGTWTMEGNKLVGKFKRVDNGKELIAVREISGNELIQTYTYEGVEAKRIFKKE	0.430	0.211	0.522	0.223	0.238
38Y 72G 117M (protein, listed as Rattus norvegicus, PEPTIDE (1)...(131) wild-type rat intestinal fatty acid binding protein) AFDGTWKVDRNENYEKFMEKMGINVVKRKLGAHDNLKYTITQEGNKFTVKESSNFRNIDVVFELGVDFAYSGADGTELTGTWTMEGNKLVGKFKRVDNGKELIAVREISGNELIQTMTYEGVEAKRIFKKE	1.233	1.137	1.228	0.574	1.541
73Y, 72A (protein, listed as Rattus norvegicus, PEPTIDE (1)...(131) wild-type rat intestinal fatty acid binding protein) AFDGTWKVDRNENYEKFMEKMGINVVKRKLGAHDNLKLTITQEGNKFTVKESSNFRNIDVVFELGVDFAYSAYDGTELTGTWTMEGNKLVGKFKRVDNGKELIAVREISGNELIQTYTYEGVEAKRIFKKE	1.711	1.537	1.603	0.982	1.529
